The record followed here is patent US20080020978A1 (Amgen, published 2008).

Square brackets hold non-standard residues; d marks the D form. Ends that are not written are not given here. 1Nal = N[C@@H](Cc1cccc2ccccc12)C(=O)O; hArg = N=C(N)NCCCC[C@H](N)C(=O)O; Cit = NC(=O)NCCC[C@H](N)C(=O)O; Aze = O=C(O)[C@@H]1CCN1; Ahx = NCCCCCC(=O)O

For this experiment, the target named is CGRP1 receptor (CRLR/RAMP1 complex) of human neuroblastoma SK-N-MC cells (human, UniProt Q16602 23-461; O60894 27-148). The experiment is described as follows: cell-based or functional assay.
CGRP1 receptor (CRLR/RAMP1 complex) of human neuroblastoma SK-N-MC cells, sequence (Q16602 23-461, chain 1 of 2): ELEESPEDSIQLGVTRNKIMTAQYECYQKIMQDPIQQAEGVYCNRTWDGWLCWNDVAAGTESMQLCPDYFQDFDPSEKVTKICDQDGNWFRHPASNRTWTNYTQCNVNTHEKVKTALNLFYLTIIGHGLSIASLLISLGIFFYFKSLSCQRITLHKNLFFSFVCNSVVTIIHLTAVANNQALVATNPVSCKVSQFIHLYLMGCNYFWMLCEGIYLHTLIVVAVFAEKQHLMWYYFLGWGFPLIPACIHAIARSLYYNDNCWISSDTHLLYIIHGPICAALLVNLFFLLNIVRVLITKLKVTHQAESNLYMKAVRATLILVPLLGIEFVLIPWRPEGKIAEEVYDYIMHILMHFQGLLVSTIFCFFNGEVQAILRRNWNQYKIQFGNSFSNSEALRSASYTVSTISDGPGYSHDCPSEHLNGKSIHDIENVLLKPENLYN
CGRP1 receptor (CRLR/RAMP1 complex) of human neuroblastoma SK-N-MC cells, sequence (O60894 27-148, chain 2 of 2): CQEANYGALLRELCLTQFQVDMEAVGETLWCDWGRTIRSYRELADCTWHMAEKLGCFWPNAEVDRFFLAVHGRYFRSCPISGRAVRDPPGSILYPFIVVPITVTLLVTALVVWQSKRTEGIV

B1: SEQ ID NO 910 (peptide)
peptide: Ac-[1Nal]VEH[hArg]LKGLLS[Cit]SG[Aze]VV[hArg]KNFVPTDVGPFAF-NH2
SMILES: CC(=O)N[C@@H](Cc1cccc2ccccc12)C(=O)N[C@H](C(=O)N[C@@H](CCC(=O)O)C(=O)N[C@@H](Cc1c[nH]cn1)C(=O)N[C@@H](CCCCNC(=N)N)C(=O)N[C@@H](CC(C)C)C(=O)N[C@@H](CCCCN)C(=O)NCC(=O)N[C@@H](CC(C)C)C(=O)N[C@@H](CC(C)C)C(=O)N[C@@H](CO)C(=O)N[C@@H](CCCNC(N)=O)C(=O)N[C@@H](CO)C(=O)NCC(=O)N1CC[C@H]1C(=O)N[C@H](C(=O)N[C@H](C(=O)N[C@@H](CCCCNC(=N)N)C(=O)N[C@@H](CCCCN)C(=O)N[C@@H](CC(N)=O)C(=O)N[C@@H](Cc1ccccc1)C(=O)N[C@H](C(=O)N1CCC[C@H]1C(=O)N[C@H](C(=O)N[C@@H](CC(=O)O)C(=O)N[C@H](C(=O)NCC(=O)N1CCC[C@H]1C(=O)N[C@@H](Cc1ccccc1)C(=O)N[C@@H](C)C(=O)N[C@@H](Cc1ccccc1)C(N)=O)C(C)C)[C@@H](C)O)C(C)C)C(C)C)C(C)C)C(C)C
As to B1, the “Peptide IC50” value is 2.31 nM.

B2: SEQ ID NO 915 (peptide)
peptide: Ac-WVTHRLAGLLSRSGGVVRKNFVPTDVGSKAF-NH2
On to B2, for which the “Peptide IC50” value amounted to 1.15 nM.

B3: SEQ ID NO 917 (peptide)
peptide: Ac-WVTHRLAGLLSRSGGVVRKNFVPTDVGPKAF-NH2
Take B3: the “Peptide IC50” value turned out to be 1 nM.

B4: SEQ ID NO 912 (peptide)
peptide: WVTHRLAGLLSRSGGVVRKNXVPTDVGPFAF
modifications: Ac-WVTHRLAGLLSRSGGVVRKN[2-Nal]VPTDVGPFAF-NH2
Consider B4, for which the “Peptide IC50” value amounted to 1.16 nM.

B5: SEQ ID NO 914 (peptide)
peptide: WVTHRLAGLLSRSGGVVRKNFVPTDVGPFAX
modifications: Ac-WVTHRLAGLLSRSGGVVRKNFVPTDVGPFA[1-Nal]-NH2
For the molecule B5, the “Peptide IC50” value worked out at 33.1 nM.

B6: SEQ ID NO 913 (peptide)
peptide: WVTHRLAGLLSRSGGVVRKNFVPTDVGPFAX
modifications: Ac-WVTHRLAGLLSRSGGVVRKNFVPTDVGPFA[2-Nal]-NH2
With B6, the “Peptide IC50” value came out at 1.72 nM.

B7: SEQ ID NO 916 (peptide)
peptide: C[Ahx]WVTHRLAGLLSRSGGVVRKNFVPTDVGPFAF-NH2
modifications: N-terminus assumed
SMILES: CC(C)C[C@H](NC(=O)CNC(=O)[C@H](C)NC(=O)[C@H](CC(C)C)NC(=O)[C@H](CCCNC(=N)N)NC(=O)[C@H](Cc1c[nH]cn1)NC(=O)[C@@H](NC(=O)[C@@H](NC(=O)[C@H](Cc1c[nH]c2ccccc12)NC(=O)CCCCCNC(=O)[C@@H](N)CS)C(C)C)[C@@H](C)O)C(=O)N[C@@H](CC(C)C)C(=O)N[C@@H](CO)C(=O)N[C@@H](CCCNC(=N)N)C(=O)N[C@@H](CO)C(=O)NCC(=O)NCC(=O)N[C@H](C(=O)N[C@H](C(=O)N[C@@H](CCCNC(=N)N)C(=O)N[C@@H](CCCCN)C(=O)N[C@@H](CC(N)=O)C(=O)N[C@@H](Cc1ccccc1)C(=O)N[C@H](C(=O)N1CCC[C@H]1C(=O)N[C@H](C(=O)N[C@@H](CC(=O)O)C(=O)N[C@H](C(=O)NCC(=O)N1CCC[C@H]1C(=O)N[C@@H](Cc1ccccc1)C(=O)N[C@@H](C)C(=O)N[C@@H](Cc1ccccc1)C(N)=O)C(C)C)[C@@H](C)O)C(C)C)C(C)C)C(C)C
As to B7, the “Peptide IC50” value turned out to be 1.8 nM.
